# According to US20180155451A1 (published 2018):
# T1: FcγRIIa R (human, UniProt P12318 34-217)
# T1 construct: extracellular domain; also called FcgRIIa R type; 2aR
# T1 sequence (looked up): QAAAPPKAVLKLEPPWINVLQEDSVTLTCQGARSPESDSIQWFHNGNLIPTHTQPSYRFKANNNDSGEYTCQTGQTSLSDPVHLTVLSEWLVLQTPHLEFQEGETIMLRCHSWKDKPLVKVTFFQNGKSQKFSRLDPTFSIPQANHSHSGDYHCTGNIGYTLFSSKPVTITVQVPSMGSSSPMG
# T2: FcγRIIb (human, UniProt P31994 43-217)
# T2 construct: extracellular domain; also called FcgRIIb; 2b
# T2 sequence (looked up): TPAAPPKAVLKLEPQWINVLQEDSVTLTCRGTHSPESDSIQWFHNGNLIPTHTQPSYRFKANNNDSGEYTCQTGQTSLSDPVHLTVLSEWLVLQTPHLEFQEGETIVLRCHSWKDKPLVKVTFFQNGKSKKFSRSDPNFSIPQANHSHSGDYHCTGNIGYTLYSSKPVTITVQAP
# B1: GpH7-A5/GpH7-B3 variant E269_12R/GpL16-k0 (antibody, human IgG1, kappa)
# heavy 1: not shown
# heavy 2: not shown
# light: DIVMTQSPLSLPVTPGEPASISCQASESLVHSNRNTYLHWYLQKPGQSPQLLIYKVSNRFSGVPDRFSGSGSGTDFTLKISRVEAEDVGVYYCSQNTHVPPTFGQGTKVEIERTVAAPSVFIFPPSDEQLKSGTASVVCLLNNFYPREAKVQWKVDNALQSGNSQESVTEQDSKDSTYSLSSTLTLSKADYEKHKVYACEVTHQGLSSPVTKSFNRGEC
# notes: heterodimerized antibody, mutation in the GpH7-B3 chain only; also called He Ab
# B2: GpH7-A5/GpH7-B3 variant Q295_03V/GpL16-k0 (antibody, human IgG1, kappa)
# heavy 1: not shown
# heavy 2: not shown
# light: B1 light
# notes: as for B1
# B3: GpH7-A5/GpH7-B3 variant Q295_12R/GpL16-k0 (antibody, human IgG1, kappa)
# heavy 1: not shown
# heavy 2: not shown
# light: B1 light
# notes: as for B1
# B4: GpH7-A5/GpH7-B3 variant H268_11K/GpL16-k0 (antibody, human IgG1, kappa)
# heavy 1: not shown
# heavy 2: not shown
# light: B1 light
# notes: as for B1
# B5: GpH7-A5/GpH7-B3 variant Q295_13S/GpL16-k0 (antibody, human IgG1, kappa)
# heavy 1: not shown
# heavy 2: not shown
# light: B1 light
# notes: as for B1
# B6: GpH7-A5/GpH7-B3 variant E269_18N/GpL16-k0 (antibody, human IgG1, kappa)
# heavy 1: not shown
# heavy 2: not shown
# light: B1 light
# notes: as for B1
# B7: GpH7-A5/GpH7-B3 variant S298_01G/GpL16-k0 (antibody, human IgG1, kappa)
# heavy 1: not shown
# heavy 2: not shown
# light: B1 light
# notes: as for B1
# B8: GpH7-A5/GpH7-B3 variant Y296_03V/GpL16-k0 (antibody, human IgG1, kappa)
# heavy 1: not shown
# heavy 2: not shown
# light: B1 light
# notes: as for B1
# B9: GpH7-A5/GpH7-B3 variant S298_02A/GpL16-k0 (antibody, human IgG1, kappa)
# heavy 1: not shown
# heavy 2: not shown
# light: B1 light
# notes: as for B1
# B10: GpH7-A5/GpH7-B3 variant E269_20W/GpL16-k0 (antibody, human IgG1, kappa)
# heavy 1: not shown
# heavy 2: not shown
# light: B1 light
# notes: as for B1
# B11: GpH7-A5/GpH7-B3 variant H268_08L/GpL16-k0 (antibody, human IgG1, kappa)
# heavy 1: not shown
# heavy 2: not shown
# light: B1 light
# notes: as for B1
# B12: GpH7-A5/GpH7-B3 variant P271_15Y/GpL16-k0 (antibody, human IgG1, kappa)
# heavy 1: not shown
# heavy 2: not shown
# light: B1 light
# notes: as for B1
# B13: GpH7-A5/GpH7-B3 variant Q295_18N/GpL16-k0 (antibody, human IgG1, kappa)
# heavy 1: not shown
# heavy 2: not shown
# light: B1 light
# notes: as for B1
# B14: GpH7-A5/GpH7-B3 variant E269_16H/GpL16-k0 (antibody, human IgG1, kappa)
# heavy 1: not shown
# heavy 2: not shown
# light: B1 light
# notes: as for B1
# B15: GpH7-A5/GpH7-B3 variant E269_15Y/GpL16-k0 (antibody, human IgG1, kappa)
# heavy 1: not shown
# heavy 2: not shown
# light: B1 light
# notes: as for B1
# B16: GpH7-A5/GpH7-B3 variant V266_16H/GpL16-k0 (antibody, human IgG1, kappa)
# heavy 1: not shown
# heavy 2: not shown
# light: B1 light
# notes: as for B1
# B17: GpH7-A5/GpH7-B3 variant P271_20W/GpL16-k0 (antibody, human IgG1, kappa)
# heavy 1: not shown
# heavy 2: not shown
# light: B1 light
# notes: as for B1
# Molecular target: T1, FcγRIIa R
# Assay: SPR; He/Con_2aR divided by He/Con_2b (FcγRIIb as reference)
# Procedure: (§1) The heterodimerized antibodies He Abs in which one of the H chains was introduced with an alteration were assayed for their binding activities to each activating FcγR and inhibitory FcγR according to the method described in Example 4. […] The activating FcγRs in FIGS. 26, 27, 28, and 29 are FcγRIa, FcγRIIa (R), FcγRIIa (H), and FcγRIIIa, respectively.
# (§2) Analysis of interaction between objective antibody and the FcγR was carried out using Biacore T100 (GE Healthcare). HBS-EP+ (GE Healthcare) was used as the running buffer, and the measurement temperature was set to 25° C. Chips produced by immobilizing the antigen peptide by the amine coupling method to a Series S Sencor Chip CM5 (GE Healthcare), or alternatively, chips produced by allowing preliminarily biotinylated antigen peptides to interact with and immobilize onto a Series S Sensor Chip SA (certified) (GE Healthcare) were used. Antibodies of interest were captured onto an antigen peptide-immobilized chip, and allowed to interact to each FcγR diluted with running buffer. To regenerate and repeatedly use the chip, the antibodies captured on the chip were washed off by reacting 10 mM glycine-HCl, pH 1.5.
row,IIaR/IIb (He_2aR/2b),Binder
1,1.39 ratio,B1
2,1.2 ratio,B2
3,1.27 ratio,B3
4,1.21 ratio,B4
5,1.3 ratio,B5
6,1.32 ratio,B6
7,1.23 ratio,B7
8,1.21 ratio,B8
9,1.24 ratio,B9
10,1.3 ratio,B10
11,1.25 ratio,B11
12,1.35 ratio,B12
13,1.27 ratio,B13
14,1.32 ratio,B14
15,1.29 ratio,B15
16,1.34 ratio,B16
17,1.33 ratio,B17

# Molecular target: T1, FcγRIIa R
# Assay: SPR (Biacore), antibody captured, FcγR as analyte; relative binding
# Procedure: as §1, §2
row,He/Con_2aR (IIaR binding),Binder
1,35 % of GpH7-A5/GpH7-B3/GpL16-k0 (=100),B1
2,91.2 % of GpH7-A5/GpH7-B3/GpL16-k0 (=100),B2
3,83 % of GpH7-A5/GpH7-B3/GpL16-k0 (=100),B3
4,100 % of GpH7-A5/GpH7-B3/GpL16-k0 (=100),B4
5,73.7 % of GpH7-A5/GpH7-B3/GpL16-k0 (=100),B5
6,59.2 % of GpH7-A5/GpH7-B3/GpL16-k0 (=100),B6
7,98.8 % of GpH7-A5/GpH7-B3/GpL16-k0 (=100),B7
8,96.2 % of GpH7-A5/GpH7-B3/GpL16-k0 (=100),B8
9,91.2 % of GpH7-A5/GpH7-B3/GpL16-k0 (=100),B9
10,55.5 % of GpH7-A5/GpH7-B3/GpL16-k0 (=100),B10
11,85 % of GpH7-A5/GpH7-B3/GpL16-k0 (=100),B11
12,70.7 % of GpH7-A5/GpH7-B3/GpL16-k0 (=100),B12
13,82.4 % of GpH7-A5/GpH7-B3/GpL16-k0 (=100),B13
14,50.7 % of GpH7-A5/GpH7-B3/GpL16-k0 (=100),B14
15,57.6 % of GpH7-A5/GpH7-B3/GpL16-k0 (=100),B15
16,76.5 % of GpH7-A5/GpH7-B3/GpL16-k0 (=100),B16
17,77.3 % of GpH7-A5/GpH7-B3/GpL16-k0 (=100),B17

# Molecular target: T2, FcγRIIb
# Assay: as above
# Procedure: as §1, §2
row,He/Con_2b (IIb binding),Binder
1,25.2 % of GpH7-A5/GpH7-B3/GpL16-k0 (=100),B1
2,75.7 % of GpH7-A5/GpH7-B3/GpL16-k0 (=100),B2
3,65.2 % of GpH7-A5/GpH7-B3/GpL16-k0 (=100),B3
4,83 % of GpH7-A5/GpH7-B3/GpL16-k0 (=100),B4
5,56.9 % of GpH7-A5/GpH7-B3/GpL16-k0 (=100),B5
6,44.8 % of GpH7-A5/GpH7-B3/GpL16-k0 (=100),B6
7,80.1 % of GpH7-A5/GpH7-B3/GpL16-k0 (=100),B7
8,79.3 % of GpH7-A5/GpH7-B3/GpL16-k0 (=100),B8
9,73.4 % of GpH7-A5/GpH7-B3/GpL16-k0 (=100),B9
10,42.5 % of GpH7-A5/GpH7-B3/GpL16-k0 (=100),B10
11,67.8 % of GpH7-A5/GpH7-B3/GpL16-k0 (=100),B11
12,52.3 % of GpH7-A5/GpH7-B3/GpL16-k0 (=100),B12
13,64.9 % of GpH7-A5/GpH7-B3/GpL16-k0 (=100),B13
14,38.5 % of GpH7-A5/GpH7-B3/GpL16-k0 (=100),B14
15,44.7 % of GpH7-A5/GpH7-B3/GpL16-k0 (=100),B15
16,57.2 % of GpH7-A5/GpH7-B3/GpL16-k0 (=100),B16
17,58.1 % of GpH7-A5/GpH7-B3/GpL16-k0 (=100),B17
